Tests used:
crystal structure = molecular target: the molecule itself; assay: crystal structure
[1] = molecular target: the molecule itself; assay: cell surface cross-linking with DSP, immunoprecipitation, SDS-PAGE

Protein	binding result (crystal structure)	binding result [1]
EphA2 ligand-binding domain (receptor, The crystallised domain; It forms dimers in the crystal; also called EphA2 LBD; EphA2-LBD) EVVLLDFAAAGGELGWLTHPYGKGWDLMQNIMNDMPIYMYSVCNVMSGDQDNWLRTNWVYRGEAERIFIELKFTVRDCNSFPGGASSCKETFNLYYAESDLDYGTNFQKRLFTKIDTIAPDEITVSSDFEARHVKLNVEERSVGPLTRKGFYLAFQDIGACVALLSVRVYYKKC	binds	–
EphB2 on PC-3 cells (receptor, human, UniProt P29323 19-1055, looked up, whole, on cells) VEETLMDSTTATAELGWMVHPPSGWEEVSGYDENMNTIRTYQVCNVFESSQNNWLRTKFIRRRGAHRIHVEMKFSVRDCSSIPSVPGSCKETFNLYYYEADFDSATKTFPNWMENPWVKVDTIAADESFSQVDLGGRVMKINTEVRSFGPVSRSGFYLAFQDYGGCMSLIAVRVFYRKCPRIIQNGAIFQETLSGAESTSLVAARGSCIANAEEVDVPIKLYCNGDGEWLVPIGRCMCKAGFEAVENGTVCRGCPSGTFKANQGDEACTHCPINSRTTSEGATNCVCRNGYYRADLDPLDMPCTTIPSAPQAVISSVNETSLMLEWTPPRDSGGREDLVYNIICKSCGSGRGACTRCGDNVQYAPRQLGLTEPRIYISDLLAHTQYTFEIQAVNGVTDQSPFSPQFASVNITTNQAAPSAVSIMHQVSRTVDSITLSWSQPDQPNGVILDYELQYYEKELSEYNATAIKSPTNTVTVQGLKAGAIYVFQVRARTVAGYGRYSGKMYFQTMTEAEYQTSIQEKLPLIIGSSAAGLVFLIAVVVIAIVCNRRGFERADSEYTDKLQHYTSGHMTPGMKIYIDPFTYEDPNEAVREFAKEIDISCVKIEQVIGAGEFGEVCSGHLKLPGKREIFVAIKTLKSGYTEKQRRDFLSEASIMGQFDHPNVIHLEGVVTKSTPVMIITEFMENGSLDSFLRQNDGQFTVIQLVGMLRGIAAGMKYLADMNYVHRDLAARNILVNSNLVCKVSDFGLSRFLEDDTSDPTYTSALGGKIPIRWTAPEAIQYRKFTSASDVWSYGIVMWEVMSYGERPYWDMTNQDVINAIEQDYRLPPPMDCPSALHQLMLDCWQKDRNHRPKFGQIVNTLDKMIRNPNSLKAMAPLSSGINLPLLDRTIPDYTSFNTVDEWLEAIKMGQYKESFANAGFTSFDVVSQMMMEDILRVGVTLAGHQKKILNSIQVMRAQMNQIQSVEGQPLARRPRATGRTKRCQPRDVTKKTCNSNDGKKKGMGKKKTDPGRGREIQGIFFKEDSHKESNDCSCGG	–	no binding

— patent US20090247540A1 (published 2009)
